# Results published in patent US20110311550A1 (Scripps Research, published 2011).
# B1: N4 IgG (antibody, V domains shown)
# VH: VQLLEQSGPEVKKPGDSLRISCKMSGDSLVTTWIGWVRQKPGQGLEWMGIINPGDSSTNIYPGDSATRYGPSFQGQVTISIDKSTSTAYLQWNNVKASDTGIYYCARHVPVPISGTFLWREREMHDFGYFDDWGQGTLVIVSS
# VL: ELTLTQSPGTLSLSPGERATLSCRASQSVSNNYLAWYQQKPGQAPRLLIYGASSRATGIPDRFSGSGSGTGFTLIISRLEPEDFAVYYCQQYGSSSITFGQGTRLEIKR
# notes: also called IgG N4
# What was measured:
# Test in all cases: ELISA, lectin-captured E1E2 lysate, Ab 1 ug/ml;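 note: E1E2 captured on Galanthus nivalis lectin-coated plates, bound test antibody read out by an HRP-linked secondary antibody and TMB colour development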
# [1] = target: E1E2 complex (H77) with E1 mutation V194A (HCV genotype 1a, isolate H77, UniProt P27958 192-383; P27958 384-746)
# [2] = target: E1E2 complex (H77) with E1 mutation F293A (HCV genotype 1a, isolate H77, UniProt P27958 192-383; P27958 384-746)
# [3] = target: E1E2 complex (H77) with E1 mutation H298A (HCV genotype 1a, isolate H77, UniProt P27958 192-383; P27958 384-746)
binder,measurement,setting,value
B1,Binding relative to wt (%),[1],109%
same,Binding relative to wt (%),[2],95%
same,Binding relative to wt (%),[3],62%
